Assay results as given in the DeepSol protein solubility set.

Experiment: soluble on expression in E. coli; label from the status in PepcDB or PDB records

For “MNEINESYDTDSVREFTVSDADAGPYALAEGPDGALWFTLVHRGAVARRDPDDGRVTVHPVGDGPTVIAPGPDGALWFTEYRAHRIGRITPEGHYASFAPLTPEGGPFGITAGPDGAMWFTLSSADRVGRVTMDGEVTEHPAPGAFPSALTAGPDGALWCTLNQGNAIGRLTPDGHGTAYPLPTPGAAPVGIAAGPDGALWFTEIGAGRIGRITVTGDLTEYPLSDPAARPHAVTAGPNGALWFTEWGSGRVGRITVDGRVTSYPLSRTDCEPHGIAVHDGALWCALETGSLARIQVPA”, which “soluble on expression in E. coli” value is on record?
The value was “soluble”.

Which “soluble on expression in E. coli” value does the source give for “MSTHIQRSALLPYPARALFDLVNDVKRYPEFLPWCSASQVLEESESLMRAELTVAKGSLSQRFTTRNVLVPGASIEMNLENGPFTELHGVWQFKALGEKACKITLDLTFDYAGPLVKATLGPLFTQAANTMVDAFCQRAKQLYG” here?
Its value is “not soluble”.

With “MEYHMGNTMTKAIYDKFKSATPYGNKVATGPTPTEAVDITVSVGGFKVGDQNYPINPKITFTNNTGQAIPGGTEFQFDIPVSAPDNAKDQSGGGLKVIASGHTRANNIGGLDGVMHRVSFSLPAWKDLPAGGTYELDMVYYLPISGPANYSVISGGKEFAFKFEQPDLPIGDLNALEHHHHHH” as the sequence, how does the “soluble on expression in E. coli” value read?
The value was “soluble”.

For “MHHHHHHSSGVDLGTENLYFQSNAMTIMLTPMQTEEFRSYLTYTTKHYAEEKVKAGTWLPEDAQLLSKQVFTDLLPRGLETPHHHLWSLKLNEKDIVGWLWIHAEPEHPQQEAFIYDFGLYEPYRGKGYAKQALAALDQAARSMGIRKLSLHVFAHNQTARKLYEQTGFQETDVVMSKKL”, which “soluble on expression in E. coli” value is on record?
Its value is “soluble”.

Which “soluble on expression in E. coli” value does the source give for “MGSDKIHHHHHHMLFANSLENQLQQWNEVISKQPNNPNAYIRRGMVQFQLAKIEESIDDFDTAEKLDNRIKPYLWQRGLSYYYADRFAEGAQQFEIDLTVNSQDVEETVWRYLCMARLVGVTEARNNLLTVKNDPRLIMRSVYDLFAGHCTPDNVFNIGQTEGNKGKFYSHLYLGLYYEAENNLPLAQEYIVKAADKYKLDDYMWYLAQVHKKLRGWM” here?
Its value is “not soluble”.

For “MSLHRFQYKAYRRSFAGTFANARESFAKREGLMIRLEDRDGRVGFGEVAPIVSFGSESFASAFSVAESLGEQVAFERVLPELAGYPCLRWACESALDMIAREGVWEELEKPWPICGLVADLGDLASVEEKLGMHYQCLKFKIGKKSLIEELKALDRVIELSEGKVQIRLDANGTLDMRTAIGWLERVAGLPVEFIEQPLPVGAEVEMRRLSADFPTLLALDESVDSVDDLKRWRDQQWPGLYVIKPSLSGSLLALGEELSGGAGDCVFSSSLETKIGESNAIGFAIRQSGHGRALGFGVERLFADRNVGLELGPFLQKGGLASSDDLESLWNLTEGHHHHHH”, which “soluble on expression in E. coli” value is on record?
Its value is “soluble”.

Which “soluble on expression in E. coli” value does the source give for “MGSDKIHHHHHHMKIHPIPPLQCLVFFDAAARHGNFTRAAEELNVTQGAVSKQVVKLESYLGMQLFVRDAKALHLTRAGQTYAGRIHDMLTGCAEATALVMKEPSPHSITIACASGTAGMFLTPIIADFSHEYPNVAIRILVREGVFNLNPAEFDIGVYYIRDVPPPGMSGIRIIEEEVQAYCAPSYLGRRRVSPHELTNVTLLVAEEQQRQWMSWRDWFHLCDSEIAYKPSRTITANSYPVLLQLALRGHGVLLGWNQMITPLVERSDLVLASDASASFGGAYQLVWPDDRRDTAAVTHFREWLLKRVPWKG” here?
The value was “not soluble”.

With “MLTKGWDTISIVRQDSVNSDLAASWNSLDHEFSYTSDEGYACHGVFDCWSVINGGGGRLLRLRMPIRSGFFEASGTSRSLAGAVAIIEVTLSLLPQGNGQVQLKSAFLHKAGATQPLQGDEGGWLRGITLQDPDGSLGPFASVVLDCICNYLVEHPLQFTHTFATINFSKATAPEWARPRKCTYAYLDSGFLAIMAVCTERDISGLPLDIDVSGISQGGQSSYVLSPRMVLEHLVLPGLLQLYQGATAQDYRLDNTQMVNIPTLRMKAIKSGAIWYTPVVFAGCNPARMLGDFITVDYKGDCDLHAGIDMKWNGWLRMKLVLDGNTINFVKQSSDFRKEVHIPWYLAWLSPIVSLITHIVAAVISDDLISAIAARGGSVKADTIDCVSWSNDTHTASSSYLAEALVINYV” as the sequence, how does the “soluble on expression in E. coli” value read?
The value was “soluble”.

With “MQMMEQFYPKVSIVIPVYNGSDYMREAIDSALGQTYGNIEVIVVNDGSSDGGLTHEIALSYGGNIRYFAKENGGVASALNFAIRMMDGEYFSWLSHDDIYYPNKIETQIGYLAEHDRNAILYSDFELIDCLSKVIKPVNAGEIPPEQFLYNLITIGHLNGCTLLVPKRCFEETGFFDESLRSTQDYALWFTFAQKYRFEQIRKVLVKYRTHSNQGSYVIPTHSQEVNDLHIWFLEEASERGLLPIPDEGASRFFLEVAGIYKKRGIYRAADYSCSMALRHMRDEGGLALLRELPRVAYLKYYFRKKQFKSYLRELRRSTVRRSLLEHHHHHH” as the sequence, how does the “soluble on expression in E. coli” value read?
The value was “not soluble”.

Which “soluble on expression in E. coli” value does the source give for “GHHHHHHAIAENLYFQSTGNAGEWCLMESDPGVFTELIKGFGCRGAQVEEIWSLEPENFEKLKPVHGLIFLFKWQPGEEPAGSVVQDSRLDTIFFAKQVINNACATQAIVSVLLNCTHQDVHLGETLSEFKEFSQSFDAAMKGLALSNSDVIRQVHNSFARQQMFEFDTKTSAKEEDAFHFVSYVPVNGRLYELDGLREGPIDLGACNQDDWISAVRPVIEKRIQKYSEGEIRFNLMAIVSDRKMIYEQKIAELQRQLAEEPMDTDQGNSMLSAIQSEVAKNQMLIEEEVQKLKRYKIENIRRKHNYLPFIMELLKTLAEHQQLIPLVEKAKEKQNAKKAQETK” here?
Its value is “not soluble”.

With “MGSDKIHHHHHHMDDRIVVTTQQVRALIASQFPQWAALDVQPVDLSGWDNRSFRLGEDMLVRMPSAERYVAQVEKEHRWLPELGPLLPVPIPAPLALGQPGEQYPFCWSVYRWLKGEPLARYLDSIELSAIAIDVAAFLKALHGIDASAGPPAGAHNFHRGGSLAVYDGEARASAARLANEVDQALAMEIWQLALSSHWQGKGVWVHGDIAEGNLLVQDGRLSAVIDFGSSGVGDPSSDLILAWNVLDAHSRAVFRQALGLDEATWQRGRGWALWKALIVLDAERGRNEKMAEWSRRTLREIFADHLEN” as the sequence, how does the “soluble on expression in E. coli” value read?
The value was “not soluble”.

With “MDKMVSYLFKGEVKNPYVFLVLGKDKEIEHTVRTDVIVVGVLDWKKGNLSFVSIPRDLMIEGKKINAIYNTYGMEKLFQIIESLLGQKPDSYVIFNYEAFKILVDELGPIEVIPNEVMFYEDLSQNLVIDFKPGVPYKLNGEQLLAYIRYRKDSMGDLARIERQKDVLKKLLSKALSRNPLEISVLYKKISPYIETDIGLPEILTLFSKLKNSVRVSFSTLPYNVDSDGSIFVDEKRLVSFKENLIGSSVQEKYRVNFLVVNTSSLVSRVFEANLRGVWKDRVGFEPDRVVWEDVGISQKFEGDHVFIGEPEKEDYILEILRKAHPSRHFTVHRFDRPEDYTMYYTILESLAKNRIYPDFPVSALILIDDFRELEHHHHHH” as the sequence, how does the “soluble on expression in E. coli” value read?
Its value is “soluble”.

Which “soluble on expression in E. coli” value does the source give for “GPGSMAEEKIKIIVVGSVKSGKTTITNFLSGTRETATSKYYETNPLRIVETEIELDSMNFTDRRVVFSGGDAKTKRVLVQIWDLSGNSKHQAGWPAVANKADGIIFVFNPALKNGEKELSLWHKTFAVNQSELDALGNFAVRVPDKHCLVFAHHSTPPSNVAGEGLPSMPKGLEKIKVLETSLDYHSDNFKAAFDKLIESIVVARMEAEEDEVLQREGRMHF” here?
Its value is “soluble”.

With “MPYPFKLPDLGYPYEALEPHIDAKTMEIHHQKHHGAYVTNLNAALEKYPYLHGVEVEVLLRHLAALPQDIQTAVRNNGGGHLNHSLFWRLLTPGGAKEPVGELKKAIDEQFGGFQALKEKLTQAAMGRFGSGWAWLVKDPFGKLHVLSTPNQDNPVMEGFTPIVGIDVWEHAYYLKYQNRRADYLQAIWNVLNWDVAEEFFKKA” as the sequence, how does the “soluble on expression in E. coli” value read?
Its value is “soluble”.

For “MPCTDKGMIDLARKTVKLTTLRQGEEATIAGISKACRGANRRRLLDLGFVRGSRIAIDLTSPLGNPTAYVVRGTAIALRRDQARYILIYR”, which “soluble on expression in E. coli” value is on record?
The value was “not soluble”.

For “RWITATDWASLPQTADTPALILFHGLEGGSASRYAQSIAHYFRARGWIVVIAHFRGCSGVPNRLARAYYSGDSAEVGFMLDTVRARIPHARWHAVGVSLGGNALLKYLGEHHDEASWLAAAAGVSVPLDLVAGGKALCTGFIARRIYTAYFLKTMRRKVLEKAKRFPGAIDVIRIAHARDLRDFDDAYTARMHGYRNALDYWTRASSKPWLAHIKTPTLVLNARNDPFLPESALPIPAECSDSVLLHQPAEGGHAGFPTGPFPAHLNWLPQRLG”, which “soluble on expression in E. coli” value is on record?
Its value is “not soluble”.

Which “soluble on expression in E. coli” value does the source give for “MTYSHEVEHMCVVKKGPNHGPAPIPEEGKWVKSKEIVDISGLTHGIGWCAPQQGACKLTLNVKEGVIQEALVETIGCSGMTHSAAMAAEILPGKTILEALNTDLVCDAINTAMRELFLQIVYGRTQSAFSEGGLIIGAGLEDLGKGLRSQVGTLYGTLAKGPRYLEMAEGYIKNIFLDKNDEICGYEFVHMGKFMDEIKKGTDANEALKKVTGTYGRVTAEQGAVKHIDPRHE” here?
The value was “not soluble”.

For “MGYTKKVYEGGSNVDQFVTRFLLKETANQIQSLLSSVESAVEAIEEQTSQLRQNHIKPSHSAAQTWCGSPTPASAPNHKLMAMEQGKTLPSATEDAKEEGLEAQISRLAELIGRLESKALWFDLQQRLSDEDGTNMHLQLVRQEMAVCPEQLSEFLDSLRQYLRGTTGVRNCFHITAVRLSDGFTFVIYEFWETEEAWKRHLQSPLCKAFRHVKVDTLSQPEALSRILVPAAWCTVGRD”, which “soluble on expression in E. coli” value is on record?
Its value is “not soluble”.

Which “soluble on expression in E. coli” value does the source give for “RSSLRKKEFGSKERLLEELRCKKTVLHEVDVTLDPDTAHPHLFLYEDSKSVRLEDSRQILPDRPERFDSWPCVLGRETFTSGRHYWEVEVGDRTDWAIGVCRENVVKKGFDPMTPDNGFWAVELYGNGYWALTPLRTSLRLAGPPRRVGVFLDYDAGDISFYNMSNGSLIYTFPSISFSGPLRPFFCLWSCGKKPLTICSTANGPEKVTVIANVQDD” here?
Its value is “not soluble”.

Which “soluble on expression in E. coli” value does the source give for “MSKMKRRTNKPRATESANSSTKSSVLDEPTLVERKQQKKQILKFVQRTLEKMPQGLRAEFVGMRRFNDFEKMKAFKEAQEAGKNRYKDVGCLDNNRVKLEGPWPHEYIHANYVATPTNPKRFICTQAPLEKTCADFWYMCYQDKVEYIFMLCNLLEKGARKCFEYFPSKKGDVMDFEEGGQKISVKCESSVTYSFRSDAKANVTATEIVIEGPGEKTRKTTHYHWNDWPDRGVPAADMAVLELLENARPSKGPIVVHCSAGIGRTGSVVMLEYIMDQLLAGQIIDDGEKILVKIREQRNNSIQTDAQYLFVHQVILNYFRKKKLMEETGVQEAYDAFLEQYKKVVV” here?
The value was “soluble”.

With “MAHHHHHHMEAETSKISEVPLPIPIGINGFGAVGRAVLFASMTEPQVTVVAVNDFSVSINYVLYVLQNESPLSAEDKASLTVVGEYIFYRGTERIRVTQKHDLVDIAWRDAGVSYVVECTGFTSTRDRCWGHLTSGARGVLVAGQSGDAPAIVAGVNDSDLSKIQPIICSGAPLAVALAPFIRILHESFGVEDCSYTAIHAIQPVEPNAARSANSQDWRQTRVTLDSITPYAHTGMTTFCKLMPTLSSRITGSAFQVPVTKGCAIDMLLRFKQPVAKESVDEALIEASKDRLKDVLFVSKRDFISRDLLPDGKLCYDPSASQCVREGELYKFTLWFDLERSFAKRLISLIPVMNDADAKKNNV” as the sequence, how does the “soluble on expression in E. coli” value read?
Its value is “soluble”.

For “MGSDKIHHHHHHMTDWHFYEPARGHALRHDPLNAIVAPRPIGWISTISSDGVRNLAPYSFFNLFSYKPPIVGFCSLGAKDSLANARDTGEFVWNLATRPLVEAMNASAAMVPAHVDEFELAKLETLPSAKVRPARVAASPVQFECVVTQIVQLEAQGGAALPAWLVLGEAVAIHIDRQLITNGVYQTAQARPILRGGGPADYFEIGAGQLFTLERPGD”, which “soluble on expression in E. coli” value is on record?
The value was “not soluble”.
